Reference: PMC3955203

Target: Blinkin (UniProt Q8NG31)
Assay: GST pull-down from mitotic lysate
Conditions: sites Y207

| binding against the reference (reference: GST-Bub3 WT without His-PKM2) | binding against the reference (reference: GST-Bub3 WT with His-PKM2, no PEP) | binding against the reference (reference: GST-Bub3 WT, PEP, no His-PKM2) | Substance |
| --- | --- | --- | --- |
| stronger | – | – | Bub3 (from UniProt O43684) GST-Bub3 WT incubated with His-PKM2 |
| – | stronger | stronger | Bub3 (from UniProt O43684) GST-Bub3 WT with His-PKM2 and PEP |
